Experimental findings from paper PMC7896290 are described below.

Test [1] addresses anti-DNP wild-type human monoclonal IgG1 (human). Put plainly: native MS.
The target of test [2] is anti-DNP IgG1-RGY (human IgG1 with E345R, E430G, S440Y) (human). Put plainly: high-speed atomic force microscopy.
Test [3] deals with human monoclonal IgG2 (human). Put plainly: native MS.
For test [4], the target named is human monoclonal IgG4 (human). The test is described as follows: native MS.

As to “SpA-B domain wild type (single B-domain of staphylococcal protein A) (domain or fragment)”, the stoichiometry N (SpA-B per IgG) in test [1] turned out to be 2. Further, the reduction of IgG1-RGY hexamers in test [2] was found to be 50%.

Regarding “staphylococcal protein A, soluble construct containing all five Ig-binding domains (domain or fragment)”, the stoichiometry N in test [1], in test [3] and in test [4] was 1 SpA per IgG each time.
